Like-named read-outs stand apart in the source and are kept apart here.
What was measured:
CD16aV (FcγRIIIaV) [1] = target: T1, CD16aV (FcγRIIIaV) (UniProt P08637 17-208); assay: SPR
CD32bF (FcγRIIbF) [2] = target: T2, CD32bF (FcγRIIbF) (UniProt P31994 43-217); assay: SPR
T2 chain: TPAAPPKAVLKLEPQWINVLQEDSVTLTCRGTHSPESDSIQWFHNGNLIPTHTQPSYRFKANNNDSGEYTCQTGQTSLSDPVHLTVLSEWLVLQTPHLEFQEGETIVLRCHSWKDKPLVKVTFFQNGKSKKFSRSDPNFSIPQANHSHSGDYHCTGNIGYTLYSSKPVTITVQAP

CD32aH (FcγRIIaH) [3] = target: T3, CD32aH (FcγRIIaH) (UniProt P12318 34-217); assay: SPR
T3 chain: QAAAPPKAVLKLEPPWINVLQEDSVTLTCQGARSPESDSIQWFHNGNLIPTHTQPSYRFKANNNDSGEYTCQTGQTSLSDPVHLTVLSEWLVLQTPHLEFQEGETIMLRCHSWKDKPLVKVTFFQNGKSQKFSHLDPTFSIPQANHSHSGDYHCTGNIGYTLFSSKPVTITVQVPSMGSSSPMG

CD16aF (FcγRIIIaF) [4] = target: T4, CD16aF (FcγRIIIaF) (UniProt P08637 17-208); assay: SPR
T4 sequence (P08637 17-208): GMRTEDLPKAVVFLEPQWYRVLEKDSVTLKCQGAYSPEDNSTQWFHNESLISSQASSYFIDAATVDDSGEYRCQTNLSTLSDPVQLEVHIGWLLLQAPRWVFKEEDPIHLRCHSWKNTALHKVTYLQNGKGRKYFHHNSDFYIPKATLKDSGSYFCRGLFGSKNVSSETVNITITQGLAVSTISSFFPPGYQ

CD16aV (FcγRIIIaV) [5] = target: T1, CD16aV (FcγRIIIaV); assay: SPR; remark: listed apart in the source
CD32bF (FcγRIIbF) [6] = target: T2, CD32bF (FcγRIIbF); assay: SPR
CD32aH (FcγRIIaH) [7] = target: T3, CD32aH (FcγRIIaH); assay: SPR
CD16aF (FcγRIIIaF) [8] = target: T4, CD16aF (FcγRIIIaF); assay: SPR; remark: listed apart in the source
FcγRIA (CD64) [9] = target: T5, FcγRIA (CD64) (UniProt P12314 16-292); assay: SPR; avid
T5 chain: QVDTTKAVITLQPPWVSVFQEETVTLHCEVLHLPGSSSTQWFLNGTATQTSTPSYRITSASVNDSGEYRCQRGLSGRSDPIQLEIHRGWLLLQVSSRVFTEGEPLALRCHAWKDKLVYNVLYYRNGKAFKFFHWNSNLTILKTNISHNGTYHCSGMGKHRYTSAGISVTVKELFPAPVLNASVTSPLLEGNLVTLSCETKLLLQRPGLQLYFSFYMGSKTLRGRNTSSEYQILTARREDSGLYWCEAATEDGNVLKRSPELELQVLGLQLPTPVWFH

FcγRIA (CD64) [10] = target: T5, FcγRIA (CD64); assay: SPR
FcγRIA (CD64) [11] = target: T5, FcγRIA (CD64); assay: SPR; avid
Mouse_anti-CD40L = assay: flow cytometry
Mouse anti hCD40L = assay: FACS cell binding; apparent Kd

T1 sequence (P08637 17-208 F176V): as the sequence (P08637 17-208) above, with F160V counted along it

B1: TNX02 anti-CD154 monoclonal antibody (antibody)
heavy: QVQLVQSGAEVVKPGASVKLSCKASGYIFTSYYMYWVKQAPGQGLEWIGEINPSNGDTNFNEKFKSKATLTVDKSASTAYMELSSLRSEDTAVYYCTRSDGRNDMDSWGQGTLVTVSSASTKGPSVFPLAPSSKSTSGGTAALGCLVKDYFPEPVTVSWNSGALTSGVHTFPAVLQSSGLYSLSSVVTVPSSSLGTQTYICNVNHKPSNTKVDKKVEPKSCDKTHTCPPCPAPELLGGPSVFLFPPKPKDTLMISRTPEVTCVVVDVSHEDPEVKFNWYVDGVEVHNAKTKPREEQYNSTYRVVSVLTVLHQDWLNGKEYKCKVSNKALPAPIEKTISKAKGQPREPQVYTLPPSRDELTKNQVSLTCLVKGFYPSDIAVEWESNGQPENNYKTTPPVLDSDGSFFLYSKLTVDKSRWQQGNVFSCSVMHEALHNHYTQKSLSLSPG
light: DIVLTQSPATLSVSPGERATISCRASQRVSSSTYSYMHWYQQKPGQPPKLLIKYASNLESGVPARFSGSGSGTDFTLTISSVEPEDFATYYCQHSWEIPPTFGGGTKLEIKRTVAAPSVFIFPPSDEQLKSGTASVVCLLNNFYPREAKVQWKVDNALQSGNSQESVTEQDSKDSTYSLSSTLTLSKADYEKHKVYACEVTHQGLSSPVTKSFNRGEC
B1 was tested. Which Kd (CD16aV (FcγRIIIaV) [1]) did it give?
Its Kd is 0.333 µM.

What about the Kd (CD32bF (FcγRIIbF) [2]) of the same binder?
Its Kd is 1.03 µM.

And the Kd (CD32aH (FcγRIIaH) [3])?
Its Kd is 0.525 µM.

What about the Kd (CD16aF (FcγRIIIaF) [4]) of the same binder?
The Kd was 1.81 µM.

What about the Kd (CD16aV (FcγRIIIaV) [5]) of the same binder?
The Kd was 0.32 µM.

And the Kd (CD32bF (FcγRIIbF) [6])?
The Kd was 0.91 µM.

What about the Kd (CD32aH (FcγRIIaH) [7]) of the same binder?
Its Kd is 0.5 µM.

And the Kd (CD16aF (FcγRIIIaF) [8])?
Its Kd is 1.7 µM.

What about the Kd (FcγRIA (CD64) [9]) of the same binder?
The Kd was 0.0288 nM.

B2: TNX10 anti-CD154 monoclonal antibody (antibody)
heavy: not shown
light: B1 light
Which Kd (CD16aV (FcγRIIIaV) [1]) does the source give for B2 here?
Its Kd is 4.63 µM.

What about the Kd (CD32bF (FcγRIIbF) [2]) of the same binder?
Its Kd is greater than 12 µM.

What about the Kd (CD32aH (FcγRIIaH) [3]) of the same binder?
Its Kd is greater than 12 µM.

What about the Kd (CD16aF (FcγRIIIaF) [4]) of the same binder?
Its Kd is greater than 5 µM.

And the Kd (FcγRIA (CD64) [10])?
The Kd was 68.7 nM.

B3: TNX11 anti-CD154 monoclonal antibody (antibody)
heavy: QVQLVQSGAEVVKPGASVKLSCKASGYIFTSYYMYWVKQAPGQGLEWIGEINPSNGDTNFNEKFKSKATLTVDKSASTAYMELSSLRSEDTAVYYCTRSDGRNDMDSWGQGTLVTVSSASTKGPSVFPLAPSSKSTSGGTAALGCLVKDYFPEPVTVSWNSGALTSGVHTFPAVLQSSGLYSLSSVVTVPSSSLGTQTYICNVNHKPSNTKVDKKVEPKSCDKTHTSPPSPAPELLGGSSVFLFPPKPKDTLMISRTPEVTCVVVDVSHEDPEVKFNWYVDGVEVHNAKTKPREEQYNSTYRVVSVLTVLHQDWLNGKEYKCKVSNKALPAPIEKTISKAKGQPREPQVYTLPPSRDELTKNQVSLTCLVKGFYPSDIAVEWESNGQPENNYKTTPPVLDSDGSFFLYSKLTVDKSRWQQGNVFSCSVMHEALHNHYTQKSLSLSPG
light: B1 light
For B3, which Kd (CD16aV (FcγRIIIaV) [1]) is on record?
Its Kd is greater than 5 µM.

And the Kd (CD32bF (FcγRIIbF) [2])?
Its Kd is greater than 12 µM.

What about the Kd (CD32aH (FcγRIIaH) [3]) of the same binder?
Its Kd is greater than 12 µM.

And the Kd (CD16aF (FcγRIIIaF) [4])?
The Kd was greater than 5 µM.

And the Kd (FcγRIA (CD64) [10])?
The Kd was 0.479 nM.

B4: TNX04 anti-CD154 monoclonal antibody (antibody)
heavy: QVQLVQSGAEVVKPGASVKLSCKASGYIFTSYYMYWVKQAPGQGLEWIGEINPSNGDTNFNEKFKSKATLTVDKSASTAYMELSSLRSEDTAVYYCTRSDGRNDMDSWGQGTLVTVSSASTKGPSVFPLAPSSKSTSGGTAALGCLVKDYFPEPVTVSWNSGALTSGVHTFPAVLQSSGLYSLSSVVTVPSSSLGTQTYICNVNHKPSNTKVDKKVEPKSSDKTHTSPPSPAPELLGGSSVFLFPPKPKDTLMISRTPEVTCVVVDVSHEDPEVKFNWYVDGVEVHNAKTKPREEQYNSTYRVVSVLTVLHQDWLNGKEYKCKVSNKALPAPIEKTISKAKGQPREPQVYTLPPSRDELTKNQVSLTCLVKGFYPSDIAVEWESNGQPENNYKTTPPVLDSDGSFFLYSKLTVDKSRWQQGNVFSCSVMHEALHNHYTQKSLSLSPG
light: B1 light
B4 was tested. Which Kd (CD16aV (FcγRIIIaV) [5]) did it give?
The Kd was 18.7 µM.

And the Kd (CD32bF (FcγRIIbF) [6])?
Its Kd is 18 µM.

What about the Kd (CD32aH (FcγRIIaH) [7]) of the same binder?
Its Kd is 36.6 µM.

And the Kd (CD16aF (FcγRIIIaF) [8])?
The Kd was greater than 5 µM.

What about the Kd (FcγRIA (CD64) [11]) of the same binder?
The Kd was 0.33 nM.

And the Kd (FcγRIA (CD64) [9])?
The Kd was 0.309 nM.

B5: TNX13 anti-CD154 monoclonal antibody (antibody)
heavy: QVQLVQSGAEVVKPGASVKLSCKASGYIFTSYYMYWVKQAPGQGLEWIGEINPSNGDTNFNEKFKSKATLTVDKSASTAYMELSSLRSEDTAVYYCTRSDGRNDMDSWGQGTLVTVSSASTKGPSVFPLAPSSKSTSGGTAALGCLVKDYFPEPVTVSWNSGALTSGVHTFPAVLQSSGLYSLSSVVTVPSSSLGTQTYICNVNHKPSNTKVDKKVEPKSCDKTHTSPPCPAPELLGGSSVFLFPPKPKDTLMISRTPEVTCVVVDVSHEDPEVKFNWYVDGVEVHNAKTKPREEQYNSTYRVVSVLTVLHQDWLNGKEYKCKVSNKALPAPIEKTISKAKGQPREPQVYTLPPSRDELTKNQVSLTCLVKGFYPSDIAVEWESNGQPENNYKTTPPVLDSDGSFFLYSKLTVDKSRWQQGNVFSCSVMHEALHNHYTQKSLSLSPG
light: B1 light
For B5, which Kd (CD16aV (FcγRIIIaV) [1]) is on record?
Its Kd is greater than 5 µM.

And the Kd (CD32bF (FcγRIIbF) [2])?
The Kd was 5.84 µM.

And the Kd (CD32aH (FcγRIIaH) [3])?
The Kd was 8.95 µM.

And the Kd (CD16aF (FcγRIIIaF) [4])?
Its Kd is greater than 5 µM.

What about the Kd (FcγRIA (CD64) [10]) of the same binder?
The Kd was 0.222 nM.

B6: TNX09 anti-CD154 monoclonal antibody (antibody)
heavy: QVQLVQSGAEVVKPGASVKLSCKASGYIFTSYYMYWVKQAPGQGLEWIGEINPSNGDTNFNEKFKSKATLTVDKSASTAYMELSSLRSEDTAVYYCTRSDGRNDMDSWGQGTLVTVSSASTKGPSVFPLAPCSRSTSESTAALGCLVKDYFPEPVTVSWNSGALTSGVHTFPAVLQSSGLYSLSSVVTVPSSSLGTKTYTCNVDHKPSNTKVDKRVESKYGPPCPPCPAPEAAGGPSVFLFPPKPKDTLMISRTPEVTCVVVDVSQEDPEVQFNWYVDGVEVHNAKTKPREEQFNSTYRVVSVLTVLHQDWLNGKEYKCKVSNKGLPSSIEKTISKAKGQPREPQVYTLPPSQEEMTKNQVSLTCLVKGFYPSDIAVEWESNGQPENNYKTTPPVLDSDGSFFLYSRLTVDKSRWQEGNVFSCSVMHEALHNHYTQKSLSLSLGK
light: B1 light
What does the source list for B6?
Kd (CD16aV (FcγRIIIaV) [1]): 3.77 µM; Kd (CD32bF (FcγRIIbF) [2]): > 12 µM; Kd (CD32aH (FcγRIIaH) [3]): > 12 µM; Kd (CD16aF (FcγRIIIaF) [4]): > 5 µM; Kd (FcγRIA (CD64) [10]): 147 nM

B7: TNX01 anti-CD154 monoclonal antibody (antibody)
heavy: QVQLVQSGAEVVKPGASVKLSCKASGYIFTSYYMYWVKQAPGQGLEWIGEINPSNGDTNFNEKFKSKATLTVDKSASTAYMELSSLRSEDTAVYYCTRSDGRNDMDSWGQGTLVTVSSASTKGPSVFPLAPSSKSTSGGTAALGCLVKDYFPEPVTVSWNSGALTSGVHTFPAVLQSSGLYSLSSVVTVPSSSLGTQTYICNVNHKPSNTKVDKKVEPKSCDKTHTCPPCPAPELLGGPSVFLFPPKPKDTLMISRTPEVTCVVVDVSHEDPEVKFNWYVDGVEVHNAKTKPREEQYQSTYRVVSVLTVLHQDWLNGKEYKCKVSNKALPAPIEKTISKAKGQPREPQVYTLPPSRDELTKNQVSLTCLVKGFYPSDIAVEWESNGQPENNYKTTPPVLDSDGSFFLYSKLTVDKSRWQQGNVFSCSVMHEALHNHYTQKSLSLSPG
light: B1 light
With B7 as the binder, how does the Kd (CD16aV (FcγRIIIaV) [5]) read?
Its Kd is greater than 5 µM.

And the Kd (CD32bF (FcγRIIbF) [6])?
Its Kd is greater than 12 µM.

What about the Kd (CD32aH (FcγRIIaH) [7]) of the same binder?
Its Kd is greater than 12 µM.

What about the Kd (CD16aF (FcγRIIIaF) [8]) of the same binder?
The Kd was greater than 5 µM.

And the Kd (FcγRIA (CD64) [11])?
Its Kd is 76.5 nM.

And the Kd (FcγRIA (CD64) [9])?
Its Kd is 56 nM.

B8: TNX05 anti-CD154 monoclonal antibody (antibody)
heavy: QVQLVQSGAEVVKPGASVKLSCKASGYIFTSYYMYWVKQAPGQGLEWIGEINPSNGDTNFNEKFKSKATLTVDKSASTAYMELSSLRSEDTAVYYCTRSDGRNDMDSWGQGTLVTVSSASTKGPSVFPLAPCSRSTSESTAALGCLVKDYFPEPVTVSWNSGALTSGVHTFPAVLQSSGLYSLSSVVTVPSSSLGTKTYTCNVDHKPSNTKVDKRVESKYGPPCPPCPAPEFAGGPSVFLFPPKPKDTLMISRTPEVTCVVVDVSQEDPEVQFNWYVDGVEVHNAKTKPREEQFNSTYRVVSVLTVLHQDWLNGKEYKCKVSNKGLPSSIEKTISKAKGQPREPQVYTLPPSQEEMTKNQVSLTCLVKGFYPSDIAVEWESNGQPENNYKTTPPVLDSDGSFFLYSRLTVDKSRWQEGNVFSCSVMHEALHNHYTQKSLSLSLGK
light: B1 light
How did the Kd (CD16aV (FcγRIIIaV) [5]) turn out when B8 was run?
Its Kd is 6.04 µM.

What about the Kd (CD32bF (FcγRIIbF) [6]) of the same binder?
Its Kd is 4.9 µM.

And the Kd (CD32aH (FcγRIIaH) [7])?
Its Kd is 7.17 µM.

What about the Kd (CD16aF (FcγRIIIaF) [8]) of the same binder?
Its Kd is 8.11 µM.

What about the Kd (FcγRIA (CD64) [11]) of the same binder?
Its Kd is 8.7 nM.

And the Kd (FcγRIA (CD64) [9])?
Its Kd is 8.8 nM.

B9: TNX08 anti-CD154 monoclonal antibody (antibody)
heavy: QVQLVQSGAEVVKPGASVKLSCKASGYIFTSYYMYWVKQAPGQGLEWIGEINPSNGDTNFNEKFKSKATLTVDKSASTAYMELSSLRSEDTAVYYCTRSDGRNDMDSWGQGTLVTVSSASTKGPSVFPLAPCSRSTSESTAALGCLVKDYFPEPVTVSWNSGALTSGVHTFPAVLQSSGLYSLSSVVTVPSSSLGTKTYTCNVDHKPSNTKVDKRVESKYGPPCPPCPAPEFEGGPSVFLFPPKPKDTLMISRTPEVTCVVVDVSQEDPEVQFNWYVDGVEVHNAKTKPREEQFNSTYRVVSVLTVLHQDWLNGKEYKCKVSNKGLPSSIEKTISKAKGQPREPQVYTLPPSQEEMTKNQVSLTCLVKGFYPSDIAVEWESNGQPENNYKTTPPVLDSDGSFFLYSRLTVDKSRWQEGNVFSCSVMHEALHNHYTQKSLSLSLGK
light: B1 light
How did the Kd (CD16aV (FcγRIIIaV) [1]) turn out when B9 was run?
The Kd was 3.56 µM.

And the Kd (CD32bF (FcγRIIbF) [2])?
The Kd was 4.2 µM.

What about the Kd (CD32aH (FcγRIIaH) [3]) of the same binder?
Its Kd is 9.03 µM.

What about the Kd (CD16aF (FcγRIIIaF) [4]) of the same binder?
The Kd was 4.44 µM.

What about the Kd (FcγRIA (CD64) [10]) of the same binder?
The Kd was 103 nM.

B10: TNX12 anti-CD154 monoclonal antibody (antibody)
heavy: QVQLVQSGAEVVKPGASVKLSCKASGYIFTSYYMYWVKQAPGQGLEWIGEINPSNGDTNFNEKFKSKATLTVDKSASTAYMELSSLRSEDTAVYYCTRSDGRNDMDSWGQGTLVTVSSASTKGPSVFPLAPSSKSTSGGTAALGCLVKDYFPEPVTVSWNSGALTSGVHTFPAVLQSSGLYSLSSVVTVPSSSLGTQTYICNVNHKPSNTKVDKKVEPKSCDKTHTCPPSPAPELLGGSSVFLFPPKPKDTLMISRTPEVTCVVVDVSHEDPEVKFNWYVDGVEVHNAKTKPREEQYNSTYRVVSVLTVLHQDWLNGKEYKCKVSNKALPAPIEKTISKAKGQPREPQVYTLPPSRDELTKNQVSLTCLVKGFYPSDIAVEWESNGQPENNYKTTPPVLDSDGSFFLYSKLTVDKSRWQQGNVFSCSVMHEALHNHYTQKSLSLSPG
light: B1 light
Which Kd (CD16aV (FcγRIIIaV) [1]) does the source give for B10 here?
Its Kd is greater than 5 µM.

What about the Kd (CD32bF (FcγRIIbF) [2]) of the same binder?
The Kd was 8.41 µM.

And the Kd (CD32aH (FcγRIIaH) [3])?
Its Kd is greater than 12 µM.

And the Kd (CD16aF (FcγRIIIaF) [4])?
Its Kd is greater than 5 µM.

And the Kd (FcγRIA (CD64) [10])?
The Kd was 0.259 nM.

B11: TNX03 anti-CD154 monoclonal antibody (antibody)
heavy: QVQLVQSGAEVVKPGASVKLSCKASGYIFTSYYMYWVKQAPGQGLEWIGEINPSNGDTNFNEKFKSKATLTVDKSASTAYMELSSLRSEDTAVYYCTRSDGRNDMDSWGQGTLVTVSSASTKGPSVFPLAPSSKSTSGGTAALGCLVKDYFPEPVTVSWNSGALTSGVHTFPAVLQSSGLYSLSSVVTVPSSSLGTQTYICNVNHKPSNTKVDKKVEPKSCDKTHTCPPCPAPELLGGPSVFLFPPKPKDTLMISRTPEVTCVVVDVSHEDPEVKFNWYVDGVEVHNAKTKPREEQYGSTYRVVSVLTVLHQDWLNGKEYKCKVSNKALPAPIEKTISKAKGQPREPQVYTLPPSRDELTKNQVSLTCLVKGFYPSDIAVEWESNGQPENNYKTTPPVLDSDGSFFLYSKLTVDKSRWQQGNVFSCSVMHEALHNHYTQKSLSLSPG
light: B1 light
What does the source list for B11?
Kd (CD16aV (FcγRIIIaV) [5]): > 5 µM; Kd (CD32bF (FcγRIIbF) [6]): > 12 µM; Kd (CD32aH (FcγRIIaH) [7]): > 12 µM; Kd (CD16aF (FcγRIIIaF) [8]): > 5 µM; Kd (FcγRIA (CD64) [11]): 92 nM; Kd (FcγRIA (CD64) [9]): 89.8 nM

B12: TNX07 anti-CD154 monoclonal antibody (antibody)
heavy: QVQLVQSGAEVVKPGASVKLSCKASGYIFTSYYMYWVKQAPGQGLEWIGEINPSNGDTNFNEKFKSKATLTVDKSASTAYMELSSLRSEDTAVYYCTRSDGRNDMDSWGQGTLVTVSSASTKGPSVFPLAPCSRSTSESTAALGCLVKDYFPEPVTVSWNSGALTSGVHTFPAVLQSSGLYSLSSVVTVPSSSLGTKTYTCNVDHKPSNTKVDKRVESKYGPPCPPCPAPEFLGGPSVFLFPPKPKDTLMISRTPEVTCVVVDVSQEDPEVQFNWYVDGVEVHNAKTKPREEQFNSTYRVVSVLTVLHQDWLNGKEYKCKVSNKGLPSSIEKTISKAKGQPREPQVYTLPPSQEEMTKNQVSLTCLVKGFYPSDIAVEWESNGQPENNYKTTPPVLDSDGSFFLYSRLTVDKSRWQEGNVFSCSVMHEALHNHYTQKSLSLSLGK
light: B1 light
What does the source list for B12?
Kd (CD16aV (FcγRIIIaV) [1]): 3.01 µM; Kd (CD32bF (FcγRIIbF) [2]): 2.45 µM; Kd (CD32aH (FcγRIIaH) [3]): 3.01 µM; Kd (CD16aF (FcγRIIIaF) [4]): 3.66 µM; Kd (FcγRIA (CD64) [10]): 0.253 nM

B13: TNX06 anti-CD154 monoclonal antibody (antibody)
heavy: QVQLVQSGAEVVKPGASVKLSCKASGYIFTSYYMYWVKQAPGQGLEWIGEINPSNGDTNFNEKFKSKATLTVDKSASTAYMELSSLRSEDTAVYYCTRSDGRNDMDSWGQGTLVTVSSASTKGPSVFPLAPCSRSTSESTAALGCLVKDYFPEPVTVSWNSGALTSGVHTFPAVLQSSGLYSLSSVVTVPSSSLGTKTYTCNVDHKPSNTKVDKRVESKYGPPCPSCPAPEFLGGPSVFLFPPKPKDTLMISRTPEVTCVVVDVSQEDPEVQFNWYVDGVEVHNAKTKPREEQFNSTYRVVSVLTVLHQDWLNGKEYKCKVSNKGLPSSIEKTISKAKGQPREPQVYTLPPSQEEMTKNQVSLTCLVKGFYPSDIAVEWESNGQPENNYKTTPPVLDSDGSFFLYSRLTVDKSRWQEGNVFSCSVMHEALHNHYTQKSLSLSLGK
light: B1 light
With B13 as the binder, how does the Kd (CD16aV (FcγRIIIaV) [1]) read?
Its Kd is 2.09 µM.

What about the Kd (CD32bF (FcγRIIbF) [2]) of the same binder?
The Kd was 2.53 µM.

What about the Kd (CD32aH (FcγRIIaH) [3]) of the same binder?
Its Kd is 3.19 µM.

And the Kd (CD16aF (FcγRIIIaF) [4])?
The Kd was 3.17 µM.

And the Kd (FcγRIA (CD64) [10])?
The Kd was 0.285 nM.

B14: D1.1 (ligand)
chain: MIETYNQTSPRSAATGLPISMKIFMYLLTVFLITQMIGSALFAVYLHRRLDKIEDERNLHEDFVFMKTIQRCNTGERSLSLLNCEEIKSQFEGFVKDIMLNKEETKKENSFEMQKGDQNPQIAAHVISEASSKTTSVLQWAEKGYYTMSNNLVTLENGKQLTVKRQGLYYIYAQVTFCSNREASSQAPFIASLCLKSPGRFERILLRAANTHSSAKPCGQQSIHLGGVFELQPGASVFVNVTDPSQVSHGTGFTSFGLLKL
With B14 as the binder, how does the Kd (Mouse_anti-CD40L) read?
The Kd was 0.339 nM.

And the Kd (Mouse anti hCD40L)?
Its Kd is 0.39 nM.

— patent publication US20220380478A1 (published 2022)
